Results as given in patent publication US20140348819A1, “Methods of Treating Cancer” (Dana-Farber Cancer Institute, Inc., priority 2011, published 2014).

Test system: six V600E BRAF melanoma cell lines
Test: Screening of recombinant RTK ligands for ability to confer resistance to BRAFi (PLX4720) or MEKi (PD184352) (Table 4)
Assay type: cell-based, human
Set-up: ability of recombinant RTK ligand to confer resistance / ability of recombinant RTK ligand to confer resistance (screening value): scale not given here
Protocol: HGF is the only one that can substantially confer drug resistance to the cell lines.
The complexity of the tumor microenvironment is much greater than an in vitro co-culture system. Therefore, the inventors explored whether the activation of other RTKs could result in a similar resistance as that observed with the activation of MET. To this end, six V600E BRAF melanoma cell lines were tested for their resistance to either BRAFi (PLX4720) or MEKi (PD184352) after the addition of 22 RTK ligands that have the potential of activating almost all known RTKs. […] The activation of a selected subset of these RTKs was confirmed by western blotting and by high throughput tyrosine kinase phosphorylation profiling.

B1: Angiopoietin-1 (protein, UniProt Q15389 16-498, looked up)
Angiopoietin-1: HIGCSNQRRSPENSGRRYNRIQHGQCAYTFILPEHDGNCRESTTDQYNTNALQRDAPHVEPDFSSQKLQHLEHVMENYTQWLQKLENYIVENMKSEMAQIQQNAVQNHTATMLEIGTSLLSQTAEQTRKLTDVETQVLNQTSRLEIQLLENSLSTYKLEKQLLQQTNEILKIHEKNSLLEHKILEMEGKHKEELDTLKEEKENLQGLVTRQTYIIQELEKQLNRATTNNSVLQKQQLELMDTVHNLVNLCTKEGVLLKGGKREEEKPFRDCADVYQAGFNKSGIYTIYINNMPEPKKVFCNMDVNGGGWTVIQHREDGSLDFQRGWKEYKMGFGNPSGEYWLGNEFIFAITSQRQYMLRIELMDWEGNRAYSQYDRFHIGNEKQNYRLYLKGHTGTAGKQSSLILHGADFSTKDADNDNCMCKCALMLTGGWWFDACGPSNLNGMFYTAGQNHGKLNGIKWHYFKGPSYSLRSTTMMIRPLDF
ability of recombinant RTK ligand to confer resistance (A2058, PD184352 - 1 uM, ligand 1.56 ng/ml): 1.02 | ability of recombinant RTK ligand to confer resistance (A2058, PD184352 - 1 uM, ligand 6.25 ng/ml): 1.03 | ability of recombinant RTK ligand to confer resistance (A2058, PD184352 - 1 uM, ligand 25 ng/ml): 0.96 | ability of recombinant RTK ligand to confer resistance (A2058, PD184352 - 1 uM, ligand 100 ng/ml): 0.99 | ability of recombinant RTK ligand to confer resistance (A2058, PD184352 - 1 uM, ligand 400 ng/ml): 0.90 | ability of recombinant RTK ligand to confer resistance (A2058, PLX4720 - 2 uM, ligand 1.56 ng/ml): 1.02 | ability of recombinant RTK ligand to confer resistance (A2058, PLX4720 - 2 uM, ligand 6.25 ng/ml): 1.02 | ability of recombinant RTK ligand to confer resistance (A2058, PLX4720 - 2 uM, ligand 25 ng/ml): 0.91 | ability of recombinant RTK ligand to confer resistance (A2058, PLX4720 - 2 uM, ligand 100 ng/ml): 0.97 | ability of recombinant RTK ligand to confer resistance (A2058, PLX4720 - 2 uM, ligand 400 ng/ml): 0.96 | ability of recombinant RTK ligand to confer resistance (C32, PD184352 - 1 uM, ligand 1.56 ng/ml): 1.08 | ability of recombinant RTK ligand to confer resistance (C32, PD184352 - 1 uM, ligand 6.25 ng/ml): 1.07 | ability of recombinant RTK ligand to confer resistance (C32, PD184352 - 1 uM, ligand 25 ng/ml): 1.02 | ability of recombinant RTK ligand to confer resistance (C32, PD184352 - 1 uM, ligand 100 ng/ml): 1.07 | ability of recombinant RTK ligand to confer resistance (C32, PD184352 - 1 uM, ligand 400 ng/ml): 0.98 | ability of recombinant RTK ligand to confer resistance (C32, PLX4720 - 2 uM, ligand 1.56 ng/ml): 1.20 | ability of recombinant RTK ligand to confer resistance (C32, PLX4720 - 2 uM, ligand 6.25 ng/ml): 1.09 | ability of recombinant RTK ligand to confer resistance (C32, PLX4720 - 2 uM, ligand 25 ng/ml): 1.14 | ability of recombinant RTK ligand to confer resistance (C32, PLX4720 - 2 uM, ligand 100 ng/ml): 1.08 | ability of recombinant RTK ligand to confer resistance (C32, PLX4720 - 2 uM, ligand 400 ng/ml): 0.99 | ability of recombinant RTK ligand to confer resistance (Colo 829, PD184352 - 1 uM, ligand 1.56 ng/ml): 0.94 | ability of recombinant RTK ligand to confer resistance (Colo 829, PD184352 - 1 uM, ligand 6.25 ng/ml): 0.97 | ability of recombinant RTK ligand to confer resistance (Colo 829, PD184352 - 1 uM, ligand 25 ng/ml): 0.97 | ability of recombinant RTK ligand to confer resistance (Colo 829, PD184352 - 1 uM, ligand 100 ng/ml): 0.93 | ability of recombinant RTK ligand to confer resistance (Colo 829, PD184352 - 1 uM, ligand 400 ng/ml): 0.97 | ability of recombinant RTK ligand to confer resistance (Colo 829, PLX4720 - 2 uM, ligand 1.56 ng/ml): 0.93 | ability of recombinant RTK ligand to confer resistance (Colo 829, PLX4720 - 2 uM, ligand 6.25 ng/ml): 0.97 | ability of recombinant RTK ligand to confer resistance (Colo 829, PLX4720 - 2 uM, ligand 25 ng/ml): 0.95 | ability of recombinant RTK ligand to confer resistance (Colo 829, PLX4720 - 2 uM, ligand 100 ng/ml): 0.94 | ability of recombinant RTK ligand to confer resistance (Colo 829, PLX4720 - 2 uM, ligand 400 ng/ml): 1.05 | ability of recombinant RTK ligand to confer resistance (G-361, PD184352 - 1 uM, ligand 1.56 ng/ml): 0.98 | ability of recombinant RTK ligand to confer resistance (G-361, PD184352 - 1 uM, ligand 6.25 ng/ml): 0.96 | ability of recombinant RTK ligand to confer resistance (G-361, PD184352 - 1 uM, ligand 25 ng/ml): 0.92 | ability of recombinant RTK ligand to confer resistance (G-361, PD184352 - 1 uM, ligand 100 ng/ml): 0.95 | ability of recombinant RTK ligand to confer resistance (G-361, PD184352 - 1 uM, ligand 400 ng/ml): 0.75 | ability of recombinant RTK ligand to confer resistance (G-361, PLX4720 - 2 uM, ligand 1.56 ng/ml): 1.02 | ability of recombinant RTK ligand to confer resistance (G-361, PLX4720 - 2 uM, ligand 6.25 ng/ml): 0.96 | ability of recombinant RTK ligand to confer resistance (G-361, PLX4720 - 2 uM, ligand 25 ng/ml): 0.97 | ability of recombinant RTK ligand to confer resistance (G-361, PLX4720 - 2 uM, ligand 100 ng/ml): 0.83 | ability of recombinant RTK ligand to confer resistance (G-361, PLX4720 - 2 uM, ligand 400 ng/ml): 0.84 | ability of recombinant RTK ligand to confer resistance (SK-MEL-5, PD184352 - 1 uM, ligand 1.56 ng/ml): 1.03 | ability of recombinant RTK ligand to confer resistance (SK-MEL-5, PD184352 - 1 uM, ligand 6.25 ng/ml): 0.93 | ability of recombinant RTK ligand to confer resistance (SK-MEL-5, PD184352 - 1 uM, ligand 25 ng/ml): 0.95 | ability of recombinant RTK ligand to confer resistance (SK-MEL-5, PD184352 - 1 uM, ligand 100 ng/ml): 0.92 | ability of recombinant RTK ligand to confer resistance (SK-MEL-5, PD184352 - 1 uM, ligand 400 ng/ml): 0.87 | ability of recombinant RTK ligand to confer resistance (SK-MEL-5, PLX4720 - 2 uM, ligand 1.56 ng/ml): 1.05 | ability of recombinant RTK ligand to confer resistance (SK-MEL-5, PLX4720 - 2 uM, ligand 6.25 ng/ml): 1.02 | ability of recombinant RTK ligand to confer resistance (SK-MEL-5, PLX4720 - 2 uM, ligand 25 ng/ml): 0.98 | ability of recombinant RTK ligand to confer resistance (SK-MEL-5, PLX4720 - 2 uM, ligand 100 ng/ml): 1.03 | ability of recombinant RTK ligand to confer resistance (SK-MEL-5, PLX4720 - 2 uM, ligand 400 ng/ml): 1.04 | ability of recombinant RTK ligand to confer resistance (SK-MEL-28, PD184352 - 1 uM, ligand 1.56 ng/ml): 1.09 | ability of recombinant RTK ligand to confer resistance (SK-MEL-28, PD184352 - 1 uM, ligand 6.25 ng/ml): 1.04 | ability of recombinant RTK ligand to confer resistance (SK-MEL-28, PD184352 - 1 uM, ligand 25 ng/ml): 1.12 | ability of recombinant RTK ligand to confer resistance (SK-MEL-28, PD184352 - 1 uM, ligand 100 ng/ml): 0.98 | ability of recombinant RTK ligand to confer resistance (SK-MEL-28, PD184352 - 1 uM, ligand 400 ng/ml): 0.96 | ability of recombinant RTK ligand to confer resistance (SK-MEL-28, PLX4720 - 2 uM, ligand 1.56 ng/ml): 1.05 | ability of recombinant RTK ligand to confer resistance (SK-MEL-28, PLX4720 - 2 uM, ligand 6.25 ng/ml): 0.96 | ability of recombinant RTK ligand to confer resistance (SK-MEL-28, PLX4720 - 2 uM, ligand 25 ng/ml): 1.02 | ability of recombinant RTK ligand to confer resistance (SK-MEL-28, PLX4720 - 2 uM, ligand 100 ng/ml): 0.96 | ability of recombinant RTK ligand to confer resistance (SK-MEL-28, PLX4720 - 2 uM, ligand 400 ng/ml): 0.99
